Assays:
[1] = systemically administered; cited from earlier work
[2] = neoplastic carcinoma patients; cited from earlier work
[3] = assay type: physicochemical
From the text: Based on the experimental data on CPT release from PHF-CPT, the action of the conjugate after intrathecal administration will be localized in the target compartment (leptomeningeal tissues contacting with CSF). The kinetics of CPT release includes two phases: (1) non-enzymatic release of a highly hydrophobic prodrug camptothecin succinimidoglycinate (CPT-SI), and (2) release of active CPT from CPT-SI (Scheme 6). […] Thus, it is expected that CPT-SI will be deposited in the leptomeningeal space and will redistribute only locally along cell membranes and other hydrophobic compartments. […] A similar distribution pattern in the meningeal compartment is expected, with CPT-SI penetration from CSF into the cancer cell formations through several cell layers.

[4] = assay type: in vitro ADME; details: rat, plasma
Description: The mechanism of the second stage hydrolysis in vivo, which results in the active CPT release, may include spontaneous or enzymatic hydrolysis as well as, e.g., aminolysis. In vitro, the half-life of (N-succinamido)-glycyl linkage in the CPT prodrug (VI) in rat plasma was over 20 hours.

[5] = humans, cited from earlier work
[6] = PET imaging of 124I-labeled human recombinant enzymes after IV and IT administration; assay type: in vivo, rats
Description: Imaging was performed using MicroPET P4. Spatial resolution (full width at half maximum, FWHM) was studied using a line ^124I source (Ø=0.19 mm) in water. A 51×127 mm cylindrical phantom was used to evaluate the count-rate performance and coincidence detection. Studies in rats and cynomolgus monkeys were carried out using five human recombinant enzymes. The proteins were labeled with ^124I, at up to 5 mCi/mg.
Next, three human recombinant enzymes, idursulfase, arylsulfatase A, and sulfamidase were labeled with ^124I and administered at 1 and 10 mg/kg via two routes, IV and IT. Dynamic imaging data and multiple static images were acquired over 8 days, and processed to determine the principal PK parameters. FITC labeled sulfamidase was also utilized to investigate brain cryosections by photoimaging.

Molecule: CN(Cc1cnc2nc(N)nc(N)c2n1)c1ccc(C(=O)N[C@@H](CCC(=O)O)C(=O)O)cc1 [methotrexate]
- CSF level relative to the systemic level [1]: 1.7%

Molecule: CC[C@@]1(O)C(=O)OCc2c1cc1n(c2=O)Cc2cc3c(CN(C)C)c(O)ccc3nc2-1 [topotecan]
- clinical outcome [2]: not promising

Molecule: camptothecin succinimidoglycinate [CPT-SI]
- solubility in water [3]: practically insoluble in water
- half-life of (N-succinamido)-glycyl linkage [4]: over 20 hours

Molecule: indium complex of diethylenetriaminepentaacetic acid [In-DTPA]
- time to reach brain ventricles ([5]; after intralumbar injection): ca. 5 hours
- half-life in CSF [5]: 13.5 ± 4.5 h

B1: sulfamidase: human recombinant enzyme labeled with 124I (protein, UniProt P51688 21-502, looked up)
N-sulphoglucosamine …: RPRNALLLLADDGGFESGAYNNSAIATPHLDALARRSLLFRNAFTSVSSCSPSRASLLTGLPQHQNGMYGLHQDVHHFNSFDKVRSLPLLLSQAGVRTGIIGKKHVGPETVYPFDFAYTEENGSVLQVGRNITRIKLLVRKFLQTQDDRPFFLYVAFHDPHRCGHSQPQYGTFCEKFGNGESGMGRIPDWTPQAYDPLDVLVPYFVPNTPAARADLAAQYTTVGRMDQGVGLVLQELRDAGVLNDTLVIFTSDNGIPFPSGRTNLYWPGTAEPLLVSSPEHPKRWGQVSEAYVSLLDLTPTILDWFSIPYPSYAIFGSKTIHLTGRSLLPALEAEPLWATVFGSQSHHEVTMSYPMRSVQHRHFRLVHNLNFKMPFPIDQDFYVSPTFQDLLNRTTAGQPTGWYKDLRHYYYRARWELYDRSRDPHETQNLATDPRFAQLLEMLRDQLAKWQWETHDPWVCAPDGVLEEKLSPQCQPLHNEL
modifications: 124I label
notes: human recombinant enzyme labeled with 124I
- initial label content in the brain region ([6]; after IT administration, 124I label, PET): 35 % of the injected dose/g
- initial label content in the brain region ([6]; after IV administration, 124I label, PET): 0.05 % of the injected dose/g

B2: idursulfase: human recombinant enzyme labeled with 124I (protein, UniProt P22304 34-455; P22304 456-550, looked up)
Iduronate 2-sulfatase 42 kDa …: TDALNVLLIIVDDLRPSLGCYGDKLVRSPNIDQLASHSLLFQNAFAQQAVCAPSRVSFLTGRRPDTTRLYDFNSYWRVHAGNFSTIPQYFKENGYVTMSVGKVFHPGISSNHTDDSPYSWSFPPYHPSSEKYENTKTCRGPDGELHANLLCPVDVLDVPEGTLPDKQSTEQAIQLLEKMKTSASPFFLAVGYHKPHIPFRYPKEFQKLYPLENITLAPDPEVPDGLPPVAYNPWMDIRQREDVQALNISVPYGPIPVDFQRKIRQSYFASVSYLDTQVGRLLSALDDLQLANSTIIAFTSDHGWALGEHGEWAKYSNFDVATHVPLIFYVPGRTASLPEAGEKLFPYLDPFDSASQLMEPGRQSMDLVELVSLFPTLAGLAGLQVPPRCPVPSFHVELCREGKNLLKHFRFRDLEEDPYLPG
Iduronate 2-sulfatase 14 kDa …: NPRELIAYSQYPRPSDIPQWNSDKPSLKDIKIMGYSIRTIDYRYTVWVGFNPDEFLANFSDIHAGELYFVDSDPLQDHNMYNDSQGGDLFQLLMP
modifications: 124I label
notes: as for B1
- half-life of clearance from both the brain and spinal cord ([6]; rat, in vivo): ca. 7 h
- initial label content in the brain region ([6]; rat, in vivo): 45 % of the injected dose/g
- initial label content in the brain region ([6]; rat, in vivo, iv): 0.20 % of the injected dose/g

B3: arylsulfatase A: human recombinant enzyme labeled with 124I (protein, UniProt P15289 19-507, looked up)
Arylsulfatase A: RPPNIVLIFADDLGYGDLGCYGHPSSTTPNLDQLAAGGLRFTDFYVPVSLCTPSRAALLTGRLPVRMGMYPGVLVPSSRGGLPLEEVTVAEVLAARGYLTGMAGKWHLGVGPEGAFLPPHQGFHRFLGIPYSHDQGPCQNLTCFPPATPCDGGCDQGLVPIPLLANLSVEAQPPWLPGLEARYMAFAHDLMADAQRQDRPFFLYYASHHTHYPQFSGQSFAERSGRGPFGDSLMELDAAVGTLMTAIGDLGLLEETLVIFTADNGPETMRMSRGGCSGLLRCGKGTTYEGGVREPALAFWPGHIAPGVTHELASSLDLLPTLAALAGAPLPNVTLDGFDLSPLLLGTGKSPRQSLFFYPSYPDEVRGVFAVRTGKYKAHFFTQGSAHSDTTADPACHASSSLTAHEPPLLYDLSKDPGENYNLLGGVAGATPEVLQALKQLQLLKAQLDAAVTFGPSQVARGEDPALQICCHPGCTPRPACCHCPDPHA
modifications: 124I label
notes: as for B1
- initial label content in the brain region ([6]; rat, in vivo): 70 % of the injected dose/g
- initial label content in the brain region ([6]; rat, in vivo, iv): 0.15 % of the injected dose/g

Reference: patent US20120171118A1, “TREATMENT OF MENINGEAL AND NEURAL DISEASES” (THE GENERAL HOSPITAL CORPORATION, priority 2009, published 2012)
